# Test results published in the DeepSol protein solubility set.
# Experiment: soluble on expression in E. coli; label from the status in PepcDB or PDB records
row,Sequence,soluble on expression in E. coli
1,MISAPGIGSGLDVSGIISKLMEIEQQPLTQLNTKEAKQQAQLSAFGSLKSVLSTFQDSVKALAKPALFNGYKATLADTTAATVSTSSSASAGTHDIEVQSLAQAQKIKSEAFATTDTVIGSGTLTIEFGTYNEDGTFTANAEKTAKTITIDPAKSTLADIRSAINEANAGVTASIVNDGSGNRLVISSKDSGLANALKISVNDTDGNHTDNAGLSKLAFDASTGGVSNMTETVAARNAVMVIDGIPVTKSSNTINDALEGVTFNLLKANPGTTTTLTVEKDKSNVEAAVNAFVKAYNDLEKTIGNLSRYDAANKQASVLTGDSTMRMIQNRMRAMLGGNQSAAGGINSLSELGISFQKDGTLALDNNKLSAVLNNPDKNIAAFFTTQGGDDTTSVEGFASRLSELIDGMTRSDGLISSRMDGINSTIKGIGKQREALEFRLESVEKRLRAQFTALDTMIASMNQTSNYLQQQLANLPKIGE,not soluble
2,MSLAEPDDDWLHVEGTNIVDKYGNKVWITGANWFGFNCRERMLLDSYHSDIIADIELVADKGINVVRMPIATDLLYAWSQGIYPPSTDTSYNNPALAGLNSYELFNFMLENFKRVGIKVILDVHSPETDNQGHNYPLWYNTTITEEIFKKAWVWVAERYKNDDTIIGFDLKNEPHTNTGTMKIKAQSAIWDDSNHPNNWKRVAEETALAILEVHPNVLIFVEGVEMYPKDGIWDDETFDTSPWTGNNDYYGNWWGGNLRGVKDYPINLGKYQSQLVYSPHDYGPIVYEQDWFKGDFITANDEQAKRILYEQCWRDNWAYIMEEGISPLLLGEWGGMTEGGHPLLDLNLKYLRCMRDFILENKYKLHHTFWCINIDSADTGGLFTRDEGTPFPGGRDLKWNDNKYDNYLYPVLWKTEEGHHHHHH,not soluble
3,MAARRAPISRRDRPAKPALSRRWIVDTAVALMRAEGLEKVTMRRLAQELDTGPASLYVYVANTAELHAAVLDALLGEVDLTGAGAEEDWREQLRAVLTSYTLVLFAHPQLARSALVARPSGENYLRLVERVLELLARSGAPGAQVAWGVDKLLQDATATAAEQATQEHDPASHEDWSATVRALRDADEATHPAIASHMPLLVAGSAHDRLRWSFDVLVNGITRTPVPGPARGAAG,soluble
4,GSMLISHSDMNQQLKSAGIGFNATELHGFLSGLLCGGLKDQSWLPLLYQFSNDNHAYPTGLVQPVTELYEQISQTLSDVEGFTFELGLTEDENVFTQADSLSDWANQFLLGIGLAQPELAKEKGEIGEAVDDLQDICQLGYDEDDNEEELAEALEEIIEYVRTIAMLFYSHFNEGEIESKPVLH,soluble
5,MYTFKKGDADYQVMLNENFKEITDSFEDGLFVRKNSKILDLNDAILPGIYSIPATGVDNKPLPNSGSLFVCKDPGGVRQLFQTERTIFIRQLGGVPSSWTDWKKVAFEKEQPFEAWYSPGTNHAGFKNKARYNLGPEFSNIGQRLGLPMKSEPLEWNSGRWQAKVLRDCKLNISGTVKYHVGSSRGVLYAYTHIDKGLDEGVGDLGIGSAVGAVGGLDYKNVAAFDLNVTLKKGEYLAFRLELAADKQLDYTQLSSMHITELV,not soluble
6,MGSDKIHHHHHHAFTTGENDPFIKSPTVAKLTNTPNGPLISCDLKALKDTVNFPLSQLTEELQIVKLDNRDEALIGGWIRTTVGEKYILVSNNKQTPYKLFDRTGKFITNIGSYGQGPNEYLNTYAEQLDEANNRIYILPWQSSKILVFDLKGNALDPIPLCLRVPKGKFRVNTAKSEVTVTVLPFPKWPAVVWTQDLKGKRKNFVAPGSLAMPQDFSNEVSMGNNTAAYDVMLMKIMPQPSVDTLYHYNAASNKLEGRFTVKYPSNDKIPWHAYYEIPKYFIGDVSFPIQIDESTFSGSKPAYYMVDKKTLHGNYVRLYNDFISTPSQTIYPSFNNGYYVTNMEPMALKEILEKEVNKKGLTADKKKKVQNLIKTLNDNDNNIVMFAKLKQ,not soluble
7,DFVHIMTPYLILDGELLHALKFAAERGVDVIIIMPGIPDKKSAYYLAKTYYPTLLASGVKIYEYTPGFIHAKVFVSDNSRAVVGTINLDYRSLYHHFECATYLYGTSSVLDIEEDFQATKDQCHRVSTTDVKNLPFYQKTLGLLARLVAP,not soluble
8,MAHHHHHHMACDDSTKRNAAAVNRLLQKTRAATAPNSQWLNSITRREDGTLSNELHLSNQQRLACEMGVFPKGHFGDVEIEEENPQRSCHALAQRRARHEWKTDEEAKRRLQIGRGEVCNKRELRAAARREAAILRYEMTLPRRRVVGHLSHLMPAQADASLAVPTEGAADALVEKGCGRWVLHNSYRQQLLHGEPVMTRIMRGEFYETKPPPQRKKKVWAAGKRHVRMTSEVNRLMNTGGWCR,not soluble
9,MSLETRARNSTRPASGLIDWEQARQAALRLSQWEQAPVDNRAFRREQYARMVALSEPLIADYLGVRLPEPVSRIFVFDRREWLEANIVSFSQLFRPIEEMYEKNGGGRGALGVLMNDVSSKLLGVQIGGLLGYLAQRVLGQYDLSLLSAEATGGSLYFVEPNIARVQQQLGLSDEDFRLWITLHEMTHAFEFEAYPWVRTYFRELLEQNFALVSGQMLSSGNSLVDMLMRLLQGIGSGQHWIETVLTPEQRAVFDRIQALMSLIEGYGNHVMNAVGRRLLPSFNQIEQQIAQRQRQRTMLDQMVFRLTGLDLKLAQYQQGEAFVNAVVAARGIQFASRVWERPENLPSMDEIRNPGQWIVRMDREGHHHHHH,soluble
10,MNFIVIGAGNIGSGIAQNLLEDGHEVEIADKSRESLNRIRGRNPKIRTREFDVMDRSAYRMLNDYDASVSALPGSIGMQFLKNVAKMGKIVVDVSYMEEDPYDLNGIAQSAGTIIVPDMGFAPGLTNAIVGYFSADLDQIRNVKIYVGGIPEKPVPPLDYTITWSVEGLIDEYTRPVRIVRNGTEDHVPALSGIERIGVGNYADMEAFYTDGLRSLIRNIKCTGEMFEKTIRYPGHAEKMAAIRDLGYFDRIKVDGCNLTMFEISEQIFMEKLFRPDIQDVVLMKVEVSGTKLGREVTRTAEMQTGYDSSRKRTAMDMATSLPASITAEFLSSNGKITSGIVFPEILGKTQNYFEYLVNNMKKKGINVNISVK,not soluble
11,MNPGKPMPLVVHGWTIFAHPLFLAQIEVLIQQVEAHKQKDPVGFVKKNASKRLAAITKLAFDIILQDPARPEYRQGGTLGDDYKHWFRAKFFQQYRLFFRYHTLSKVIVFAWVNDEDTRRAYESSDDAYRMFRKMLENGLPPDDWNQLLAEARAEGQRLQQFAARWW,not soluble
12,MGSDKIHHHHHHMTAPLKSLFLLDPSVTYLNHGAYGATPRPVFERHVQWQYELEREPVDFLSRRFAERMAQARAILAEYVDTERDNLVYVSNGTTGVNIVARSLPLGPGDELLTTDHEHGGIERLWRFTAQKRGFEIVRHKVSLPVTTHARFVEDFWRDVTPRTRAILISQLTSPTALVFPVAAICARARARGILTIVDGSHVPGQLPLSLREMDPDFYVGILHKWVCAPKGSAFLYARPDVQPLVEPLVVSWGWEPKNPGPSKFVEYHEWQGSRDISAFLSVPSAIAFQREHDWDGVRKRCIALASDAQREVAALTREPLYHPPGAHEWHGQMVCAQLPPQTDDIALLARLRNECGIDVSVDRFGGRPRIRVSIQGYNGPDDVDRLLGSLKQLLRL,not soluble
13,MGNFYSLGKKEPVIRLLQITDCHLFSSESECLLGINTTETFQAVIEHIHQTDFAYDAVLATGDLIQDHNPEAYHRFAEMAKQFVKPLFWLEGNHDKQPQMSLYLGKHPHIQPEKQLLAGEKWQILLLNSQVAGAPSGYLSAGQLAWLNSKLAKHLDRYALVVLHHNILPTNSAWLDQHCLKNSEQLAKVLKSYRNVKAILHGHIHQEVDRVWQGYRVLATPSTCIQFKPNCRDFTLDMLPQGWREISLLEDGSIETTVKRLASNQFLPDFQSKGY,not soluble
14,VGFAPELYCGLENCYDVLEVNREEFDKQKLAKAYRALARKHHPDRVKNKEEKLLAEERFRVIATAYETLKDDEAKTNYDYYLDHPDQRFYNYYQYYRLRAAPKVDL,soluble
15,MAHHHHHHMRGEHELVIPGEQRRDWCSTDACENRLCRKKFSLLVSKQHCQWCGRIFCDNCAPCTATYGGRRLRRCNSCKFPAVFRSLRNLRTGKRDGSVARLIMSFLDSRSINALMHSCYTSLSEFNVGDYVYYESITDRFPTFFEGAMIGKGGFGSVYKCEDRSYPCRRRVALKVITKASVVTYRSWKKIVTELEIMQDVDHHNVAKLLEVLQTPHHLVIVMEAGDGGSLMQAWRLAKEYKYDVEVLVANVVLQVAEGLDYLYHKKGIVHRDIKLENIVLSHDFKRVMIIDFGLAEYVKQCETQLFVPCGTAGYTSPENIRAVVERRRVYEALGETMHLADMYSLGVVAYVLLCGHMPVATRCFSSLYQNMLKGIRCVGPHWANVSDDAKSLVESLVKTNSFERATVAVIREHPFIQAKAPLIVEIVQRHMHKQTETERREVKEWVYVEPLSDHWDMIEVETVSDEENRGLALRKGSSTFGRVGFMNRLKSVVWD,not soluble
16,MGNGGILCALKTDSCSMLVISNNVHLPDAEIELTAIRAQGAGGQNVNKVSSAVHLRFDIPASSLPPFYKERLLALRDSRITSDGVIILKAQQYRTQEQNRADALERLTELILSAIKVEKKRRPTKPTLGSKKRRLETKAKRGSIKAGRGKVDFLEHHHHHH,soluble
17,QDSLPDTKASGPAHSKEVPALTAVETGATNPLAPSDTVQTRHVVQRRSRSESTIESFFARGACVAIIEVDNEQPTTRAQKLFAMWRITYKDTVQLRRKLEFFTYSRFDMEFTFVVTANFTNANNGHALNQVYQIMYIPPGAPTPKSWDDYTWQTSSNPSIFYTYGAAPARISVPYVGLANAYSHFYDGFAKVPLKTDANDQIGDSLYSAMTVDDFGVLAVRVVNDHNPTKVTSKVRIYMKPKHVRVWCPRPPRAVPYYGPGVDYRNNLDPLSEKGLTTY,soluble
18,MAFELPALPYAKDALEPHISAETLDFHHGKHHNTYVVKLNGLIPGTEFENKSLEEIIKTSTGGIFNNAAQVWNHTFYWHCLSPNGGGEPTGAVAEAINAAFGSFADFKAKFTDSAINNFGSSWTWLVKKADGTLAITNTSNAATPLTEEGVTPLLTVDLWEHAYYIDYRNVRPDYMNGFWALVNWDFVAQNLAK,not soluble
19,GSHMPAPHGGILQDLIARDALKKNELLSEAQSSDILVWNLTPRQLCDIELILNGGFSPLTGFLNENDYSSVVTDSRLADGTLWTIPITLDVDEAFANQIKPDTRIALFQDDEIPIAILTVQDVYKPNKTIEAEKVFRGDPEHPAISYLFNVAGDYYVGGSLEAIQLPQHYDYPGLRKTPAQLRLEFQSRQWDRVVAFQTRNPMHRAHRELTVRAAREANAKVLIHPVVGLTKPGDIDHHTRVRVYQEIIKRYPNGIAFLSLLPLAMRMSGDREAVWHAIIRKNYGASHFIVGRDHAGPGKNSKGVDFYGPYDAQELVESYKHELDIEVVPFRMVTYLPDEDRYAPIDQIDTTKTRTLNISGTELRRRLRVGGEIPEWFSYPEVVKILRESNPPRPKQGFSIVLGNSLTVSREQLSIALLSTFLQFGGGRYYKIFEHNNKTELLSLIQDFIGSGSGLIIPNQWEDDKDSVVGKQNVYLLDTSSSADIQLESADEPISHIVQKVVLFLEDNGFFVF,soluble
20,MKKATMLTYLEEQLEKHLGDYEVGLDWDRKNHTIEVIVRLYAENNEQVAIDDVDGTLSEEEFIEFEDGLLFYNPQKSVVDDEEYLVTIPYEGKKGLRKAVLDGFIHYLKVVLDEGQSDLLDFLSDETAEVFELHWEPADFEAMIKKVAETEKEQWIAYPSY,not soluble
